Experimental data from the MegaScale stability set (Tsuboyama et al. 2023).

B1: 2K2A (parent)
chain: ELREAFRLYDKEGNGYISTDVMREILAELDETLSSEDLDAMIDEIDADGSGTVDFEEFMGVMT

Variants of: B1
Experiment: folding stability dG (cDNA display proteolysis); higher = more stable
Settings: PBS, room temperature

| Variant | folding stability dG [kcal/mol] |
| --- | --- |
| ELRNAFRLYDKEGNGYISTDVMREILAELDETLSSEDLDAMIDEIDADGSGTVDFEEFMGVMT | 1.4 |
| ELRLAFRLYDKEGNGYISTDVMREILAELDETLSSEDLDAMIDEIDADGSGTVDFEEFMGVMT | 1.53 |
| ELRCAFRLYDKEGNGYISTDVMREILAELDETLSSEDLDAMIDEIDADGSGTVDFEEFMGVMT | 2.85 |
| ELRMAFRLYDKEGNGYISTDVMREILAELDETLSSEDLDAMIDEIDADGSGTVDFEEFMGVMT | 1.39 |
| ELRRAFRLYDKEGNGYISTDVMREILAELDETLSSEDLDAMIDEIDADGSGTVDFEEFMGVMT | 1.6 |
| ELRPAFRLYDKEGNGYISTDVMREILAELDETLSSEDLDAMIDEIDADGSGTVDFEEFMGVMT | 0.889 |
| ELRFAFRLYDKEGNGYISTDVMREILAELDETLSSEDLDAMIDEIDADGSGTVDFEEFMGVMT | 1.32 |
| ELRHAFRLYDKEGNGYISTDVMREILAELDETLSSEDLDAMIDEIDADGSGTVDFEEFMGVMT | 1.36 |
| ELRVAFRLYDKEGNGYISTDVMREILAELDETLSSEDLDAMIDEIDADGSGTVDFEEFMGVMT | 1.39 |
| ELRIAFRLYDKEGNGYISTDVMREILAELDETLSSEDLDAMIDEIDADGSGTVDFEEFMGVMT | 1.43 |
| ELRTAFRLYDKEGNGYISTDVMREILAELDETLSSEDLDAMIDEIDADGSGTVDFEEFMGVMT | 1.23 |
| ELRSAFRLYDKEGNGYISTDVMREILAELDETLSSEDLDAMIDEIDADGSGTVDFEEFMGVMT | 1.24 |
| ELRYAFRLYDKEGNGYISTDVMREILAELDETLSSEDLDAMIDEIDADGSGTVDFEEFMGVMT | 1.43 |
| ELRKAFRLYDKEGNGYISTDVMREILAELDETLSSEDLDAMIDEIDADGSGTVDFEEFMGVMT | 1.64 |
| ELRWAFRLYDKEGNGYISTDVMREILAELDETLSSEDLDAMIDEIDADGSGTVDFEEFMGVMT | 1.41 |
| ELRDAFRLYDKEGNGYISTDVMREILAELDETLSSEDLDAMIDEIDADGSGTVDFEEFMGVMT | 2 |
| ELRQAFRLYDKEGNGYISTDVMREILAELDETLSSEDLDAMIDEIDADGSGTVDFEEFMGVMT | 1.46 |
| ELRGAFRLYDKEGNGYISTDVMREILAELDETLSSEDLDAMIDEIDADGSGTVDFEEFMGVMT | 0.935 |
| ELRAAFRLYDKEGNGYISTDVMREILAELDETLSSEDLDAMIDEIDADGSGTVDFEEFMGVMT | 1.77 |
| ELRECFRLYDKEGNGYISTDVMREILAELDETLSSEDLDAMIDEIDADGSGTVDFEEFMGVMT | 3.22 |
| ELREYFRLYDKEGNGYISTDVMREILAELDETLSSEDLDAMIDEIDADGSGTVDFEEFMGVMT | 2.59 |
| ELREDFRLYDKEGNGYISTDVMREILAELDETLSSEDLDAMIDEIDADGSGTVDFEEFMGVMT | 1.18 |

| Variant | folding stability dG [kcal/mol] |
| --- | --- |
| ELRELFRLYDKEGNGYISTDVMREILAELDETLSSEDLDAMIDEIDADGSGTVDFEEFMGVMT | 3 |
| ELREMFRLYDKEGNGYISTDVMREILAELDETLSSEDLDAMIDEIDADGSGTVDFEEFMGVMT | 2.91 |
| ELRENFRLYDKEGNGYISTDVMREILAELDETLSSEDLDAMIDEIDADGSGTVDFEEFMGVMT | 1.13 |
| ELREIFRLYDKEGNGYISTDVMREILAELDETLSSEDLDAMIDEIDADGSGTVDFEEFMGVMT | 2.78 |
| ELREVFRLYDKEGNGYISTDVMREILAELDETLSSEDLDAMIDEIDADGSGTVDFEEFMGVMT | 2.6 |
| ELREEFRLYDKEGNGYISTDVMREILAELDETLSSEDLDAMIDEIDADGSGTVDFEEFMGVMT | 1.21 |
| ELREGFRLYDKEGNGYISTDVMREILAELDETLSSEDLDAMIDEIDADGSGTVDFEEFMGVMT | 1 |
| ELREFFRLYDKEGNGYISTDVMREILAELDETLSSEDLDAMIDEIDADGSGTVDFEEFMGVMT | 2.74 |
| ELRETFRLYDKEGNGYISTDVMREILAELDETLSSEDLDAMIDEIDADGSGTVDFEEFMGVMT | 2.14 |
| ELREQFRLYDKEGNGYISTDVMREILAELDETLSSEDLDAMIDEIDADGSGTVDFEEFMGVMT | 2.3 |
| ELREHFRLYDKEGNGYISTDVMREILAELDETLSSEDLDAMIDEIDADGSGTVDFEEFMGVMT | 1.76 |
| ELREKFRLYDKEGNGYISTDVMREILAELDETLSSEDLDAMIDEIDADGSGTVDFEEFMGVMT | 2.72 |
| ELRERFRLYDKEGNGYISTDVMREILAELDETLSSEDLDAMIDEIDADGSGTVDFEEFMGVMT | 2.66 |
| ELREWFRLYDKEGNGYISTDVMREILAELDETLSSEDLDAMIDEIDADGSGTVDFEEFMGVMT | 2.97 |
| ELREPFRLYDKEGNGYISTDVMREILAELDETLSSEDLDAMIDEIDADGSGTVDFEEFMGVMT | 0.29 |
| ELRESFRLYDKEGNGYISTDVMREILAELDETLSSEDLDAMIDEIDADGSGTVDFEEFMGVMT | 1.39 |
| ELREACRLYDKEGNGYISTDVMREILAELDETLSSEDLDAMIDEIDADGSGTVDFEEFMGVMT | 1.79 |
| ELREAARLYDKEGNGYISTDVMREILAELDETLSSEDLDAMIDEIDADGSGTVDFEEFMGVMT | 0.316 |
| ELREAGRLYDKEGNGYISTDVMREILAELDETLSSEDLDAMIDEIDADGSGTVDFEEFMGVMT | -0.227 |
| ELREAERLYDKEGNGYISTDVMREILAELDETLSSEDLDAMIDEIDADGSGTVDFEEFMGVMT | 0.086 |
| ELREADRLYDKEGNGYISTDVMREILAELDETLSSEDLDAMIDEIDADGSGTVDFEEFMGVMT | 0.525 |
